Literature values as cited in article PMC11969061.

Molecular target: BTN3A IgV (Homo sapiens) (UniProt O00481)
UniProt O00481, sequence (O00481 30-139): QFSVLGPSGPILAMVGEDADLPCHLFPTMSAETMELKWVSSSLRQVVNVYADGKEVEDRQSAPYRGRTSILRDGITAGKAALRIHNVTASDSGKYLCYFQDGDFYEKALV

- Kd: 600 µM
Substance: BTN2A1 IgV (from UniProt Q7KYR7)
